Source: PMC3543382, “Elements of Transcriptional Machinery Are Compatible among Plants and Mammals” (PLoS ONE, 2013)

Molecular target: RelA-ECFP (human, UniProt Q04206 1-551)
Assay: cell-based or functional assay

Sequence of RelA-ECFP (Q04206 whole entry): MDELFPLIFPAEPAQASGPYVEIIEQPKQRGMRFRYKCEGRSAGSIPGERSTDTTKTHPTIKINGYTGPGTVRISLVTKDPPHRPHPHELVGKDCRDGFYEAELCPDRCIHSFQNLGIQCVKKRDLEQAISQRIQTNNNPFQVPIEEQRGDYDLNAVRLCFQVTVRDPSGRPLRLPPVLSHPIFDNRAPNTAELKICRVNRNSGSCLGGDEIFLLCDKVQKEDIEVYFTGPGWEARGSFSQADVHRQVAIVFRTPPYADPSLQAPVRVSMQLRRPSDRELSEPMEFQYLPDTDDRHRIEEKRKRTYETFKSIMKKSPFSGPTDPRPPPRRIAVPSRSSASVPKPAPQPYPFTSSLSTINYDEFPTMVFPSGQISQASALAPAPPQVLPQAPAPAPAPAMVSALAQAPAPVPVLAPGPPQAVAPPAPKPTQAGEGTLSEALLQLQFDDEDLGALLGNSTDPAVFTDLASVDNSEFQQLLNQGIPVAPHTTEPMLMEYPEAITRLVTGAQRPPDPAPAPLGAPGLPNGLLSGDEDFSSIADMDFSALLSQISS

B1: IκB-EYFP (natural protein, human, UniProt P25963 1-317, looked up)
chain: MFQAAERPQEWAMEGPRDGLKKERLLDDRHDSGLDSMKDEEYEQMVKELQEIRLEPQEVPRGSEPWKQQLTEDGDSFLHLAIIHEEKALTMEVIRQVKGDLAFLNFQNNLQQTPLHLAVITNQPEIAEALLGAGCDPELRDFRGNTPLHLACEQGCLASVGVLTQSCTTPHLHSILKATNYNGHTCLHLASIHGYLGIVELLVSLGADVNAQEPCNGRTALHLAVDLQNPDLVSLLLKCGADVNRVTYQGYSPYQLTWGRPSTRIQQQLGQLTLENLQMLPESEDEESYDTESEFTEFTEDELPYDDCVFGGQRLTL
  transactivation of the IκBα-promoter EYFP reporter by the p50/RelA heterodimer in the presence of IκB (untagged proteins) in Arabidopsis protoplasts, EYFP/ECFP emission relative to the basal activity: 3.5 fold
